This note sets out measurements from article PMC7610992 (Journal of molecular biology, 2006).

First the molecules themselves.
T1: RNA helicase B (RhlB), full-length helicase (E. coli, UniProt P0A8J8 1-421)
T1 sequence (looked up): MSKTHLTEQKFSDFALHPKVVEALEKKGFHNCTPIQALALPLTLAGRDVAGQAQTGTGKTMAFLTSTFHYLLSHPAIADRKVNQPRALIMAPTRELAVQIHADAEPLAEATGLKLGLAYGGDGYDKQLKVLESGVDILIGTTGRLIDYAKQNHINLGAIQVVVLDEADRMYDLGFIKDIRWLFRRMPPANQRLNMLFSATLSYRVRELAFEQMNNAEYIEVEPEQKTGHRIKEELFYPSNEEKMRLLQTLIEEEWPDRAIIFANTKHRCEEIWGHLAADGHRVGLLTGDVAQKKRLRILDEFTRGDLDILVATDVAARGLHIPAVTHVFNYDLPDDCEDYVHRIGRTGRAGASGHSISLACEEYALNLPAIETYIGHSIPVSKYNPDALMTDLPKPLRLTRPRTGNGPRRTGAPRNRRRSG

B1: RhlB-CTD, carboxy-terminal domain of RhlB helicase (domain or fragment, E. coli)
chain: MRIKEELFYPSNEEKMRLLQTLIEEEWPDRAIIFANTKHRCEEIWGHLAADGHRVGLLTGDVAQKKRLRILDEFTRGDLDILVATDVAARGLHIPAVTHVFNYDLPDDCEDYVHRIGRTGRAGASGHSISLACEEYALNLPAIETYIGHSIPVSKYNPDALMTDLPKPLRLTRPRTGNGPRRTGAPRNRRRSG
B2: RNase E (628-843) (domain or fragment, E. coli, UniProt P21513 628-843, looked up)
chain: ERTEGSDNREENRRNRRQAQQQTAETRESRQQAEVTEKARTADEQQAPRRERSRRRNDDKRQAQQEAKALNVEEQSVQETEQEERVRPVQPRRKQRQLNQKVRYEQSVAEEAVVAPVVEETVAAEPIVQEAPAPRTELVKVPLPVVAQTAPEQQEENNADNRDNGGMPRRSRRSPRHLRVSGQRRRRYRDERYPTQSPMPLTVACASPELASGKVW

The assay “RNase E (628-843)” concerns the target B2. Put plainly: SEC + cross-linking + native MS.
Assay [1] concerns the target T1, RNA helicase B (RhlB), full-length …. Put plainly: limited proteolysis with native gel and mass spectrometry.

Turning to B1, the “stoichiometry N” value with RNase E (628-843) was 1 RhlB-CTD per RNase E (628-843).

B2: the binding result in assay [1] is given as “binds”.
